# Results reported in patent US12497460B2, “Anti-MSR1 antibodies and methods of use thereof” (REGENERON PHARMACEUTICALS, INC., priority 2018, dated 2025).
# B1: H1H27739P-N297Q: anti-MSR1 antibody "made with an N297Q single point mutation in human Fcγ portion" (antibody, V domains shown)
# VH: EVQLVESGGGLVQPGGSLRLSCTASGFTFSSYAMSWVRQAPGKGLEWVSAISGTGSSTYFTDSVKGRFAISRDNSKNTLYLQMNSLRAEDTAVYYCAKDGEWLSTVTLFDYWGQGTLVTVSS
# VL: EIVMTQSPATLSVSPGERATLSCRASQSVSSNLAWYQQKPGQAPRLLIYGASTRATGIPARFSGSGSGTDFTLTISSLQSEDFALYYCQQYFIWPPHPTFGPGTKVDIKR
# B2: H1H21231N-N297Q: modified version of "21231N (H1H21231N-N297Q) anti-MSR1 antibodies" with "a N297Q single point mutation" (antibody, V domains shown)
# VH: EVQLVESGGGLVQPGGSLRLSCAASGFTFSDHYMDWVRQAPGKGLEWVGRTRNKANSHTTEYTASVTGRFTISRDDSRNSLYLQMNSLKTEDTAVYYCVRAGIIGTLFDYWGQGTLVTVSS
# VL: DIQMTQFPSSLSASVGDRVTITCRASQSISSFLNWFQQKPGKAPKFLIYAASSLQSGVPSRFSGSGSGTDFTLTISSLQPEDFATYYCQQSYSSPPITFGQGTRLEIKR
# B3: H1H21231N: "anti-MSR1 antibodies ... (21227N, 21231N, 21234N) were produced with the original human Fcγ portion"; "H1H" = human IgG1 Fc (antibody, V domains shown)
# VH: B2 VH
# VL: B2 VL
# modifications: human IgG1 Fc
# notes: "anti-MSR1 antibodies ; (21227N, 21231N, 21234N) were produced with the original human Fcγ portion"; "H1H" = human IgG1 Fc
# B4: H1H27747P-N297Q (antibody, V domains shown)
# VH: QVQLVESGGAVVQPGRSLRLSCAASGFTFSYYGMHWVRQAPGKGLEWVAVISYDGSKKYYADSVKGRFTISRDNSKNTLYLQMNSLRAEDTAVYYCAKDLTVDFYYGMDVWGQGTTVTVSS
# VL: DIQMTQSPSSVSASVGDRVTITCRASQGISSWLAWYQQKPGKAPKLLIYATSSLQSGAPSRFSGSGSGTDFTLTISSLQPEDFATYFCQQANSFPYTFGQGTKLEIKR
# B5: H1H21234N-N297Q-LP13 (conjugate)
# VH: QVQLQESGPGLVKPSETLSLTCTVTGGSISRNYWSWIRQPPGKGLEWIGYIYYSGSIDYNPSLKSRVTISVDTSKNQFSLKLSSMTAADTAVYYCARDRWNWKYGMDVWGQGTTVIVSS
# VL: EIVLTQSPGTLSLSPGERATLSCRASQTVRNNYLAWYHQKPGQAPRLLIYGASSRATGIPDRFSGSGSGTDFTLTISRLEPEDFTVYYCHQYGNSPWTFGQGTKMEIKR
# Assays:
# [1] = biological target: T1, His9-hMSR1 (human MSR1 extracellular domain) (Homo sapiens, UniProt P21757); assay: Biacore surface plasmon resonance binding kinetics of anti-MSR1 mAbs, antibody-capture format; settings: analyte His9-hMSR1, NB = no binding observed; for kd: * = no dissociation observed, kd manually fixed at 1.00E−05; for ka: antibody-capture format; for Kd: calculated from kinetic rates; for t½: dissociative half-life
# T1 construct: human MSR1 extracellular domain expressed with a N-terminal nonahistidine tag; His9 (nonahistidine) (N); purchased R&D Systems 2708-MS
# T1 sequence (P21757 77-451 limits assumed): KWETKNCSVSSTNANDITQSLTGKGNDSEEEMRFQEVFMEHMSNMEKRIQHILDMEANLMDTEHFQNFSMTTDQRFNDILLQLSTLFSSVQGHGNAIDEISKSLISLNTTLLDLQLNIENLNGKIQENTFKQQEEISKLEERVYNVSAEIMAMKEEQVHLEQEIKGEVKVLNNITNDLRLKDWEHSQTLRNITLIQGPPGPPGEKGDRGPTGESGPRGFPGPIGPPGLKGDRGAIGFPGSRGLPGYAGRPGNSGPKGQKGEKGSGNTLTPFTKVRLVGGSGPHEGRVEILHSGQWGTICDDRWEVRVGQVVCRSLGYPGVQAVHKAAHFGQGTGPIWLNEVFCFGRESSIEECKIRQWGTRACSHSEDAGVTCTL
# Experimental: (§1) Binding affinities and kinetic constants of human anti-MSR1 antibodies for different MSR1 reagents were determined by real-time surface plasmon resonance (Biacore 4000). All binding studies were performed in 10 mM HEPES, 150 mM NaCl, 3 mM EDTA, and 0.05% v/v Surfactant Tween-20, pH 7.4 (HBS-ET) running buffer at 25° C. and 37° C.
# (§2) The association rate (ka) and dissociation rate (kd) were determined by fitting the real-time binding sensorgrams to a 1:1 binding model with mass transport limitation using Scrubber 2.0c curve-fitting software. Binding dissociation equilibrium constant (KD) and dissociative half-life (t½) were calculated from the kinetic rates as: […]
# [2] = biological target: HMM-mfMSR1 (monkey MSR1 extracellular domain); assay: as above; settings: analyte HMM-mfMSR1, NB = no binding observed; for kd: * = no dissociation observed, kd manually fixed at 1.00E−05; for ka: antibody-capture format; for Kd: calculated from kinetic rates; for t½: dissociative half-life
# Sequence of HMM-mfMSR1 (monkey MSR1 extracellular domain) (as listed by the source): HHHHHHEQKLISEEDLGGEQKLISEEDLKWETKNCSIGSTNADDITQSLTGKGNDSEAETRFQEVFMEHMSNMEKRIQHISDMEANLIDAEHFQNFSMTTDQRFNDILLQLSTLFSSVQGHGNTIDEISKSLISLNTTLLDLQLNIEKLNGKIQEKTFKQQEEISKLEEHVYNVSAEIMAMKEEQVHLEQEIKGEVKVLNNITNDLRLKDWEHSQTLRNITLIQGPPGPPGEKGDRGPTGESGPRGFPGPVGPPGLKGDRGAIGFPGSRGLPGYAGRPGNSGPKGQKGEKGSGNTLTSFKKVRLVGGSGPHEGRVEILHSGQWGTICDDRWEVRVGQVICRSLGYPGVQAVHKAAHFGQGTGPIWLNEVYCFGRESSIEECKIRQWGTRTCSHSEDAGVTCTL
# Experimental: as §1, §2
# [3] = biological target: T2, MSR1-mediated Dil-AcLDL uptake in HEK293.Myc.hMSR1 cells (Homo sapiens, UniProt P21757); assay: Ligand uptake assay, Dil-AcLDL; format: cell-based; settings: 10 μg/mL Dil-AcLDL; for Dil-Acetylated LDL % Inhibition: maximum inhibition
# T2 construct: expressed in transfected cells; host or cells: HEK293 (lentiviral transduction, hygromycin selection)
# T2 sequence (P21757 1-451): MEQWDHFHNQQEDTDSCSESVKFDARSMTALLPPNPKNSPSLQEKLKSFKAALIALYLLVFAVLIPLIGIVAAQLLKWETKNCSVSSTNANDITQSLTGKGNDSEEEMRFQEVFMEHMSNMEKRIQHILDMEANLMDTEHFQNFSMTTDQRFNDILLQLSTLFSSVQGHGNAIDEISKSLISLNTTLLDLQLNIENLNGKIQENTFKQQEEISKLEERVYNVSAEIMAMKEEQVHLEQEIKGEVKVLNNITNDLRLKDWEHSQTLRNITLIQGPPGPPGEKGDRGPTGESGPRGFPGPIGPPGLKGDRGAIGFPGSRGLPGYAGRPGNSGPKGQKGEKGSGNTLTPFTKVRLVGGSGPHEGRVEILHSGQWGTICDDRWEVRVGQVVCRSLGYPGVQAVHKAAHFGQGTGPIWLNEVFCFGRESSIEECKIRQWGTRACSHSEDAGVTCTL
# Experimental: A bioassay was generated to assess the ability of the exemplary anti-MSR1 antibodies to regulate the uptake of certain MSR1 ligands.
# Generation of MSR1-expressing cell lines for assay. […] The resulting cell line, referred to here as “HEK293.Myc.hMSR1”, was selected and maintained in DMEM containing 10% FIBS, NEAA, penicillin/streptomycin, L-glutamine, and 100 μg/mL hygromycin.
# Ligand uptake assay. […] After 30 minutes, either oxidized or acetylated low-density lipoprotein (LDL) labeled with 1,1′dioctadecyl-3,3,3′,3′-tetramethylindocarbocyanine perchlorate (referred to as “Dil-OxLDL” or “Dil-AcLDL,” respectively) was added to the cells at a constant concentration of 10 μg/mL. […] Results were analyzed using nonlinear regression (4-parameter logistics) with the Prism 7 program to obtain EC50 and IC50 values. The percentage of inhibition was calculated with the Relative Fluorescent Unit (RFU) values by using the following equation: […]
# In the equation, “RFUBaseline” is the fluorescence value from the cells treated with 10 μg/mL ligand without antibodies, “RFUInhibition” is the minimum fluorescence value with for a particular antibody with 10 μg/mL ligand, and “RFUBackground” is the fluorescence value from cells without any ligand or antibodies.
# [4] = biological target: T1, His9-hMSR1 (human MSR1 extracellular domain); assay: Biacore T200 surface plasmon resonance binding kinetics of anti-MSR1 antibody-drug conjugates and parental antibodies; settings: 25° C.; for kd: * = no dissociation observed, kd manually fixed at 1.00E−05
# Experimental: The MSR1 antibodies disclosed herein were conjugated to various liver X receptor (LXR) payloads or various steroid payloads. This example describes how equilibrium dissociation constant (KD) values for human MSR1 reagents binding to human anti-MSR1 antibody-drug conjugates and their corresponding unconjugated parental antibodies were determined using a real-time surface plasmon resonance-based Biacore T200 biosensor.
# All binding studies were performed in 10 mM HEPES, 300 mM NaCl, 3 mM EDTA, and 0.05% v/v Surfactant Tween-20, pH 7.4 (HBS-ET) running buffer at 25° C. The Biacore CM4 sensor chip surface was first derivatized by amine coupling with the goat anti-human Fcγ specific polyclonal antibody (Jackson ImmunoResearch Laboratories, Cat #BR-1008-39) to capture anti-MSR1 monoclonal antibodies. Binding studies were performed on human MSR1 extracellular domain expressed with a N-terminal nonahistidine tag (His9-hMSR1; R&D Systems, Cat #2708-MS).
# as §2
# Binding kinetics parameters for His9-hMSR1 binding to different anti-MSR1 antibody-LXR ADCs and their unconjugated parental antibodies at 25° C. are shown in Table 19. “LP1” represents a linker-payload for which the payload structure is provided in Example 11.
# The binding studies were repeated with anti-MSR1 antibody H1H21234-N297Q and steroid linker payloads (LPs). “LP3” represents a linker-payload for which the structure is provided in Example 23, and “LP13” represents a linker-payload for which the structure is provided in Example 24.
# [5] = Table 19, antibody-LXR ADCs and unconjugated antibodies
molecule,measurement,setting,value
B1,kd,[1]; 25° C.,0.00103 s⁻¹
same,ka,[1]; 25° C.,375000 M⁻¹ s⁻¹
same,kd,[1]; 37° C.,0.00288 s⁻¹
same,ka,[1]; 37° C.,776000 M⁻¹ s⁻¹
same,kd,[2]; 25° C.,0.000144 s⁻¹
same,ka,[2]; 25° C.,352000 M⁻¹ s⁻¹
same,kd,[2]; 37° C.,0.000842 s⁻¹
same,ka,[2]; 37° C.,2.25e+06 M⁻¹ s⁻¹
same,Dil-Acetylated LDL IC50,[3],no inhibition
same,maximum inhibition of Dil-AcLDL uptake,[3],no inhibition
same,Dil-Acetylated LDL % Inhibition,[3],no inhibition
same,ka,[4]; [5],119000 M⁻¹ s⁻¹
same,kd,[4]; Table 19,0.000555 s⁻¹
B2,kd,[1]; 25° C.,5.88e-05 s⁻¹
same,ka,[1]; 25° C.,399000 M⁻¹ s⁻¹
same,Kd,[1]; 25° C.,0.147 nM
same,t½,[1]; 25° C.,3.27 h
same,kd,[1]; 37° C.,0.000115 s⁻¹
same,ka,[1]; 37° C.,534000 M⁻¹ s⁻¹
same,Kd,[1]; 37° C.,0.215 nM
same,t½,[1]; 37° C.,1.68 h
same,kd,[2]; 25° C.,9.03e-05 s⁻¹
same,ka,[2]; 25° C.,240000 M⁻¹ s⁻¹
same,Kd,[2]; 25° C.,0.376 nM
same,t½,[2]; 25° C.,2.13 h
same,kd,[2]; 37° C.,0.000109 s⁻¹
same,ka,[2]; 37° C.,587000 M⁻¹ s⁻¹
same,Kd,[2]; 37° C.,0.186 nM
same,t½,[2]; 37° C.,1.77 h
same,Dil-Acetylated LDL % Inhibition,[3],62%
B3,kd,[1]; 25° C.,1.00E−05* s^−1
same,ka,[1]; 25° C.,477000 M⁻¹ s⁻¹
same,Kd,[1]; 25° C.,0.021 nM
same,t½,[1]; 25° C.,19.25 h
same,kd,[1]; 37° C.,9.09e-05 s⁻¹
same,ka,[1]; 37° C.,702000 M⁻¹ s⁻¹
same,Kd,[1]; 37° C.,0.13 nM
same,t½,[1]; 37° C.,2.12 h
same,kd,[2]; 25° C.,6.39e-05 s⁻¹
same,ka,[2]; 25° C.,274000 M⁻¹ s⁻¹
same,Kd,[2]; 25° C.,0.233 nM
same,t½,[2]; 25° C.,3.02 h
same,kd,[2]; 37° C.,7.82e-05 s⁻¹
same,ka,[2]; 37° C.,712000 M⁻¹ s⁻¹
same,Kd,[2]; 37° C.,0.11 nM
same,t½,[2]; 37° C.,2.47 h
same,IC50,[3]; read-out: Dil-Acetylated LDL IC50,3.5 nM
same,Dil-Acetylated LDL % Inhibition,[3],63%
B4,kd,[1]; 25° C.,0.000652 s⁻¹
same,ka,[1]; 25° C.,243000 M⁻¹ s⁻¹
same,kd,[1]; 37° C.,0.00276 s⁻¹
same,ka,[1]; 37° C.,513000 M⁻¹ s⁻¹
same,kd,[2]; 25° C.,0.000874 s⁻¹
same,ka,[2]; 25° C.,231000 M⁻¹ s⁻¹
same,kd,[2]; 37° C.,0.00228 s⁻¹
same,ka,[2]; 37° C.,657000 M⁻¹ s⁻¹
same,ka,[4]; [5],117000 M⁻¹ s⁻¹
same,kd,[4]; Table 19,0.000262 s⁻¹
B5,ka,"[4]; Table 20, antibody-steroid ADCs and unconjugated antibody",400000 M⁻¹ s⁻¹
same,kd,[4]; Table 20,1e-05 s⁻¹
